System: Escherichia coli TOP10
Assay: shrunken log2 fold change of peptide-encoding DNA abundance (4.5 h post-induction vs induction); higher = less antimicrobial activity (less host growth inhibition)
Conditions: time post-induction: 4.5 h; library: site-saturation at positions 5, 18, 19, 20
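Further: peptides expressed intracellularly from a pBAD plasmid library in pooled LB shake-flask culture, induced with 0.3% L-arabinose, DNA abundance read by NGS, three biological replicates, DESeq2 with apeglm shrinkage.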

Row | Sequence | shrunken log2 fold change
1 | RRIRSRPPRLPRPRPRPEIRPRP | -0.0706
2 | RRIRYRPPRLPRPRPRPLANPRP | -0.371
3 | RRIRYRPPRLPRPRPRPHDVPRP | -0.379
4 | RRIRKRPPRLPRPRPRPFGKPRP | 0.144
5 | RRIRYRPPRLPRPRPRPYSDPRP | -0.237
6 | RRIRYRPPRLPRPRPRPRQEPRP | -0.0183
7 | RRIRTRPPRLPRPRPRPPTLPRP | 0.0694
8 | RRIRARPPRLPRPRPRPSYSPRP | -0.349
9 | RRIRQRPPRLPRPRPRPKYRPRP | -0.0976
10 | RRIRERPPRLPRPRPRPYNSPRP | -0.0287
11 | RRIRKRPPRLPRPRPRPSDIPRP | 1.14
12 | RRIRDRPPRLPRPRPRPVVGPRP | 0.642
13 | RRIRDRPPRLPRPRPRPQKRPRP | -0.00561
14 | RRIRCRPPRLPRPRPRPHIKPRP | -0.788
15 | RRIRKRPPRLPRPRPRPPPSPRP | 0.911
16 | RRIRMRPPRLPRPRPRPEYEPRP | 0.644
17 | RRIRYRPPRLPRPRPRPKYSPRP | -0.274
18 | RRIRKRPPRLPRPRPRPAPTPRP | 1.01
19 | RRIRLRPPRLPRPRPRPSYAPRP | -0.134
20 | RRIRDRPPRLPRPRPRPCCIPRP | 0.168
21 | RRIRARPPRLPRPRPRPSEFPRP | 0.00109
22 | RRIRHRPPRLPRPRPRPVSDPRP | 0.132
23 | RRIRTRPPRLPRPRPRPMIHPRP | -0.609
24 | RRIRIRPPRLPRPRPRPGRTPRP | 0.0928
25 | RRIRNRPPRLPRPRPRPAPRPRP | 1.6

Row | Sequence | shrunken log2 fold change
26 | RRIRKRPPRLPRPRPRPLNTPRP | 0.143
27 | RRIRARPPRLPRPRPRPPVYPRP | 0.0965
28 | RRIRCRPPRLPRPRPRPEIYPRP | -0.0456
29 | RRIRGRPPRLPRPRPRPCNNPRP | 0.0304
30 | RRIRKRPPRLPRPRPRPTSLPRP | -0.00423
31 | RRIRRRPPRLPRPRPRPPLLPRP | 0.675
32 | RRIRYRPPRLPRPRPRPERPPRP | 0.232
33 | RRIRTRPPRLPRPRPRPILFPRP | -0.209
34 | RRIRKRPPRLPRPRPRPGHCPRP | 0.00694
35 | RRIRARPPRLPRPRPRPVIGPRP | 0.535
36 | RRIRTRPPRLPRPRPRPDNDPRP | 0.0177
37 | RRIRRRPPRLPRPRPRPVLIPRP | 0.177
38 | RRIRCRPPRLPRPRPRPNDPPRP | 0.0328
39 | RRIRWRPPRLPRPRPRPAEPPRP | 0.256
40 | RRIRGRPPRLPRPRPRPPGVPRP | 0.931
41 | RRIRYRPPRLPRPRPRPCPAPRP | -0.772
42 | RRIRLRPPRLPRPRPRPVFVPRP | -0.198
43 | RRIRMRPPRLPRPRPRPFYMPRP | -0.054
44 | RRIRPRPPRLPRPRPRPAIMPRP | -0.00756
45 | RRIRARPPRLPRPRPRPGDDPRP | 0.846
46 | RRIRYRPPRLPRPRPRPSVPPRP | -0.497
47 | RRIRSRPPRLPRPRPRPALNPRP | 0.161
48 | RRIRWRPPRLPRPRPRPSNPPRP | -0.218
49 | RRIRNRPPRLPRPRPRPHFIPRP | 0.121
50 | RRIRARPPRLPRPRPRPYGIPRP | -0.00196

Row | Sequence | shrunken log2 fold change
51 | RRIRMRPPRLPRPRPRPGVAPRP | 1.02
52 | RRIRHRPPRLPRPRPRPMTEPRP | 0.0178
53 | RRIRIRPPRLPRPRPRPRPEPRP | 0.11
54 | RRIRWRPPRLPRPRPRPCTSPRP | -0.174
55 | RRIRCRPPRLPRPRPRPFDKPRP | -0.493
56 | RRIRWRPPRLPRPRPRPECNPRP | 0.457
57 | RRIRGRPPRLPRPRPRPSNGPRP | 2.8
58 | RRIRFRPPRLPRPRPRPNAVPRP | -0.0327
59 | RRIRFRPPRLPRPRPRPFQNPRP | -0.041
60 | RRIRQRPPRLPRPRPRPICEPRP | 0.0925
61 | RRIRLRPPRLPRPRPRPYRCPRP | -0.268
62 | RRIRYRPPRLPRPRPRPTMLPRP | -0.54
63 | RRIRNRPPRLPRPRPRPMCDPRP | -0.386
64 | RRIRARPPRLPRPRPRPCWNPRP | -0.0387
65 | RRIRQRPPRLPRPRPRPGVRPRP | -0.0485
66 | RRIRVRPPRLPRPRPRPCLWPRP | 0.0452
67 | RRIRKRPPRLPRPRPRPEKYPRP | -0.0153
68 | RRIRFRPPRLPRPRPRPMHWPRP | 0.325
69 | RRIRYRPPRLPRPRPRPKWPPRP | -0.0557
70 | RRIRPRPPRLPRPRPRPINLPRP | -0.994
71 | RRIRCRPPRLPRPRPRPSDKPRP | -0.207
72 | RRIRDRPPRLPRPRPRPDGWPRP | 0.965
73 | RRIRGRPPRLPRPRPRPELDPRP | 0.807
74 | RRIRGRPPRLPRPRPRPPSQPRP | 0.882
75 | RRIRPRPPRLPRPRPRPMRMPRP | 0.268

Row | Sequence | shrunken log2 fold change
76 | RRIRDRPPRLPRPRPRPCKNPRP | 0.056
77 | RRIRGRPPRLPRPRPRPDTAPRP | 1
78 | RRIRWRPPRLPRPRPRPNFCPRP | 0.0758
79 | RRIRWRPPRLPRPRPRPSAEPRP | 1.14
80 | RRIRPRPPRLPRPRPRPAMAPRP | 0.388
81 | RRIRDRPPRLPRPRPRPNGVPRP | -0.0244
82 | RRIRPRPPRLPRPRPRPWMGPRP | -0.114
83 | RRIRKRPPRLPRPRPRPSQIPRP | 0.00892
84 | RRIRKRPPRLPRPRPRPPKDPRP | 0.498
85 | RRIRDRPPRLPRPRPRPHYCPRP | -0.0438
86 | RRIRPRPPRLPRPRPRPGCEPRP | 0.113
87 | RRIRNRPPRLPRPRPRPKWHPRP | 0.129
88 | RRIRQRPPRLPRPRPRPWCYPRP | -0.466
89 | RRIRMRPPRLPRPRPRPVWTPRP | 0.386
90 | RRIRFRPPRLPRPRPRPVSQPRP | 0.0413
91 | RRIRSRPPRLPRPRPRPNDIPRP | -0.333
92 | RRIRPRPPRLPRPRPRPMCRPRP | -0.263
93 | RRIRSRPPRLPRPRPRPTGGPRP | 0.259
94 | RRIRARPPRLPRPRPRPPFNPRP | 0.167
95 | RRIRCRPPRLPRPRPRPYWTPRP | -0.966
96 | RRIRGRPPRLPRPRPRPYPNPRP | -0.529
97 | RRIRERPPRLPRPRPRPTSRPRP | 0.249
98 | RRIRDRPPRLPRPRPRPSPFPRP | -0.0929
99 | RRIRCRPPRLPRPRPRPLAIPRP | -0.0224
100 | RRIRLRPPRLPRPRPRPTGHPRP | 0.0863

Row | Sequence | shrunken log2 fold change
101 | RRIRVRPPRLPRPRPRPNIDPRP | -0.258
102 | RRIRCRPPRLPRPRPRPRKHPRP | 0.0674
103 | RRIRVRPPRLPRPRPRPMRDPRP | 0.0208
104 | RRIRLRPPRLPRPRPRPRLTPRP | 0.143
105 | RRIRTRPPRLPRPRPRPGNDPRP | -0.219
106 | RRIRERPPRLPRPRPRPCETPRP | -0.336
107 | RRIRQRPPRLPRPRPRPRWNPRP | -0.0799
108 | RRIRKRPPRLPRPRPRPFMEPRP | -0.00271
109 | RRIRPRPPRLPRPRPRPLMEPRP | 0.0162
110 | RRIRFRPPRLPRPRPRPIIPPRP | -0.677
111 | RRIRVRPPRLPRPRPRPEDQPRP | 0.0356
112 | RRIRSRPPRLPRPRPRPIWHPRP | -0.271
113 | RRIRLRPPRLPRPRPRPWPPPRP | 0.668
114 | RRIRFRPPRLPRPRPRPWESPRP | -0.037
115 | RRIRGRPPRLPRPRPRPASPPRP | 0.323
116 | RRIRPRPPRLPRPRPRPTPPPRP | 0.477
117 | RRIRMRPPRLPRPRPRPTQHPRP | 0.717
118 | RRIRCRPPRLPRPRPRPFPPPRP | 0.0149
119 | RRIRTRPPRLPRPRPRPWKIPRP | -0.0703
120 | RRIRHRPPRLPRPRPRPARNPRP | 0.093
121 | RRIRERPPRLPRPRPRPHTMPRP | -0.0656
122 | RRIRRRPPRLPRPRPRPVYDPRP | -0.331
123 | RRIRVRPPRLPRPRPRPAFKPRP | 0.086
124 | RRIRERPPRLPRPRPRPFFKPRP | -0.37
125 | RRIRWRPPRLPRPRPRPWVMPRP | -0.129

Row | Sequence | shrunken log2 fold change
126 | RRIRSRPPRLPRPRPRPGFFPRP | 0.176
127 | RRIRVRPPRLPRPRPRPMICPRP | -0.0606
128 | RRIRCRPPRLPRPRPRPCAYPRP | -0.153
129 | RRIRCRPPRLPRPRPRPACPPRP | -0.136
130 | RRIRPRPPRLPRPRPRPVYPPRP | 3.41
131 | RRIRGRPPRLPRPRPRPNMSPRP | 0.161
132 | RRIRLRPPRLPRPRPRPCCYPRP | -0.611
133 | RRIRCRPPRLPRPRPRPFTGPRP | -0.0668
134 | RRIRRRPPRLPRPRPRPVYLPRP | -0.173
135 | RRIRVRPPRLPRPRPRPMEWPRP | -0.125
136 | RRIRFRPPRLPRPRPRPGWTPRP | -0.115
137 | RRIRNRPPRLPRPRPRPWIEPRP | -0.042
138 | RRIRFRPPRLPRPRPRPRICPRP | 0.0102
139 | RRIRRRPPRLPRPRPRPHANPRP | 0.275
140 | RRIRQRPPRLPRPRPRPYSKPRP | -0.119
141 | RRIRYRPPRLPRPRPRPIIWPRP | -0.152
142 | RRIRFRPPRLPRPRPRPVEHPRP | -0.0778
143 | RRIRNRPPRLPRPRPRPHYWPRP | -0.388
144 | RRIRHRPPRLPRPRPRPVFSPRP | 0.0833
145 | RRIRRRPPRLPRPRPRPHYMPRP | -0.126
146 | RRIRKRPPRLPRPRPRPTISPRP | -0.279
147 | RRIRERPPRLPRPRPRPLQAPRP | 0.167
148 | RRIRDRPPRLPRPRPRPVQWPRP | 0.0426
149 | RRIRVRPPRLPRPRPRPELVPRP | 0.14
150 | RRIRRRPPRLPRPRPRPRHAPRP | 0.746
